Target: DEP-Venus (DEP domain of Disheveled, DVL) (UniProt O14641)
Assay: NanoBiT-based DEP recruitment BRET assay (BRET titration)
Conditions: HEK293A cells, FLAG-LgBiT-CAAX cotransfected, baseline-corrected …, parent: est. 0.38, read off a plot

response (value read at the right end of the fitted curve (Venus fluorescence about 23000 arb. units)) [net BRET]	response (value read at the right end of the fitted curve (Venus fluorescence about 27000 arb. units)) [net BRET]	Substance
0.1	–	FZD7-SmBiT, wild type (from UniProt O75084) F345A; W386A
–	0.08	FZD7-SmBiT, wild type (from UniProt O75084) F345A; H382A
